Assay results from patent publication US20220220216A1 (Kyowa Kirin, published 2022).
Read-outs that look alike come from different tables or passages of the source.

Assays:
[1] = target: T1, human GPC3 on a cell membrane (human, UniProt P51654 25-554); test: FCM on HepG2 cells (GPC3-positive), APC anti-human IgG Fc, MFI [B]
T1 construct: HepG2 and HuH-7 carry the endogenous protein; also called hGPC3; GPC3 on HepG2 cells, HuH-7 cells, MC-38/hGPC3 cells and Expi293F cells transiently expressing human GPC3

human CD40 on cells [2] = target: T2, human CD40 on cells (human, UniProt P25942 21-277); test: FCM on Ramos cells (CD40-positive, GPC3-negative), antibody at 0.01-10 µg/mL, APC anti-human IgG Fc, MFI [A]
T2 construct: Endogenous CD40 of Ramos cells (and of monocyte-derived dendritic cells); also called CD40 on Ramos cells; CD40 on human induced dendritic cells
Procedure: (§1) Ramos cells were suspended in SB at a cell density of 1×10⁶ cells/mL, and the suspension was dispensed in a 96-well round bottom plate (manufactured by Falcon, Inc.) at 100 μL/well.
(§2) After further centrifugation (2000 rpm, 4° C., 2 minutes), the supernatant was removed, and the pellet was washed 3 times with 200 μL/well of SB, and then, APC-conjugated AffiniPure F(ab′)₂ Goat Anti-Human IgG, Fcγ (manufactured by Jackson ImmunoResearch Laboratories, Inc.) diluted 100 times was added thereto at 100 μL/well, and the plate was incubated at ice temperature for 30 minutes. After washing twice with SB, the cells were suspended in 100 μL/well of SB, and the fluorescence intensity of each cell was measured using a flow cytometer FACSCANTO II (manufactured by Becton, Dickinson and Company).

[3] = target: T3, Human GPC3-His (manufactured by ACROBiosystems, Inc.) (human, UniProt P51654 25-559); test: SPR (Biacore T100), antibody captured on anti-human IgG, antigen as analyte, single cycle kinetics
T3 construct: Bought protein; also called hGPC3-His; not shown: His tag
Procedure: (§3) An anti-human IgG antibody was immobilized on a CMS sensor chip (manufactured by GE Healthcare, Inc.) using Human Antibody Capture Kit (manufactured by GE Healthcare, Inc.) according to the package insert. A test antibody prepared at 2 μg/mL was added to a flow cell for 10 seconds at a flow rate of 10 μL/min.
(§4) The measurement was performed by a single cycle kinetics method.

human CD40 on cells [4] = target: T2, human CD40 on cells; test: FCM on Ramos cells (CD40-positive, GPC3-negative), APC anti-human IgG Fc, MFI [A]
Procedure: as §1, §2

[5] = target: T3, Human GPC3-His (manufactured by …); test: SPR (Biacore T100), antibody captured on anti-human IgG, antigen as analyte, single cycle kinetics; first run (Table 8)
Procedure: as §3, §4
(§5) The obtained sensorgram was analyzed using Bia Evaluation Software (manufactured by GE Healthcare, Inc.), and the kinetic constant of each antibody was calculated.

human CD40 on cells [6] = target: T2, human CD40 on cells; test: FCM on Ramos cells (CD40-positive), MFI [B]
Procedure: The reactivity of each of various bispecific antibodies produced in Example 16 with HepG2 cells and Ramos cells was evaluated by FCM in the same manner as in Example 7.

[7] = target: T3, Human GPC3-His (manufactured by …); test: SPR (Biacore T100), antibody captured on anti-human IgG, antigen as analyte, single cycle kinetics; remark: listed apart in the source
Procedure: as §3, §4, §5

[8] = target: T3, Human GPC3-His (manufactured by …); test: SPR (Biacore T100), antibody captured on anti-human IgG, antigen as analyte, single cycle kinetics; second run (Table 9)
Procedure: as §3, §4

monkey CD40-GST protein = target: T4, monkey CD40-GST protein (monkey, UniProt P25942 21-193 (human entry)); test: phage ELISA, CD40-GST immobilised on the plate
T4 construct: it may begin with a signal peptide; not shown: GST region of the N5 vector
T4 chain: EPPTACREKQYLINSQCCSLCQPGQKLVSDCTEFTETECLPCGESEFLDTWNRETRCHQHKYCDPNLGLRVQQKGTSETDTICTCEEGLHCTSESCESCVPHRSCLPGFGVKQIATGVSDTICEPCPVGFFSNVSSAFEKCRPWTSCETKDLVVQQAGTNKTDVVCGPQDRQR
Procedure: (§6) In the ELISA, MAXISORP (manufactured by NUNC, Inc.) in which the human or monkey CD40-GST in Example 1 was immobilized on each well and a portion to which the human or monkey CD40-GST is not bound was blocked using SuperBlock Blockig Buffer (manufactured by Thermo Fisher, Inc.) was used. To each well, each phage clone was added and reacted at room temperature for 30 minutes, and thereafter, each well was washed 3 times with PBS-T.
(§7) Subsequently, an anti-M13 antibody (manufactured by GE Healthcare, Inc.) labeled with horseradish peroxidase was diluted 5000 times with PBS-T containing 10% Block Ace (manufactured by Dainippon Pharmaceutical Co., Ltd.), and the resultant was added in an amount of 50 μL to each well, and incubated at room temperature for 30 minutes. After the microplate was washed four times with PBS-T, a TMB chromogenic substrate solution (manufactured by DAKO, Inc.) was added in an amount of 50 μL to each well and incubated at room temperature for 10 minutes.

human CD40-GST protein = target: T5, human CD40-GST protein (human, UniProt P25942 21-193); test: phage ELISA, CD40-GST immobilised on the plate
T5 construct: not shown: GST region of the N5 vector
Procedure: as §6, §7

human CD40 on cells [9] = target: T2, human CD40 on cells; test: FCM on Ramos cells (CD40-positive, GPC3-negative)
Procedure: as §1, §2

T3 sequence (P51654 25-559 limits assumed): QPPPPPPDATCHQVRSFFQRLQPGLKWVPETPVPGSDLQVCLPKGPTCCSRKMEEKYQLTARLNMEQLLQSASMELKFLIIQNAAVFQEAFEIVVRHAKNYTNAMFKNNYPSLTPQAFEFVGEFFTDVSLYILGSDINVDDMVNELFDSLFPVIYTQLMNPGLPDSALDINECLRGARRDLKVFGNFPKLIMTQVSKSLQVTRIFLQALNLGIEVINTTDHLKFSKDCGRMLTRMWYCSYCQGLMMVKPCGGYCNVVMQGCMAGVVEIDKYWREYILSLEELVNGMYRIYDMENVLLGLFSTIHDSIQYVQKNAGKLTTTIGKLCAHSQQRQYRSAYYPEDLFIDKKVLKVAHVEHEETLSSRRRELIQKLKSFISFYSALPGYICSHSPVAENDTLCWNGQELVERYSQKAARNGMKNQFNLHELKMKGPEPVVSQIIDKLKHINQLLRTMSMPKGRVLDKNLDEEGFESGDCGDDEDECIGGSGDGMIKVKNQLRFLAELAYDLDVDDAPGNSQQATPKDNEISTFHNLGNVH
T1 sequence (P51654 25-554 limits assumed): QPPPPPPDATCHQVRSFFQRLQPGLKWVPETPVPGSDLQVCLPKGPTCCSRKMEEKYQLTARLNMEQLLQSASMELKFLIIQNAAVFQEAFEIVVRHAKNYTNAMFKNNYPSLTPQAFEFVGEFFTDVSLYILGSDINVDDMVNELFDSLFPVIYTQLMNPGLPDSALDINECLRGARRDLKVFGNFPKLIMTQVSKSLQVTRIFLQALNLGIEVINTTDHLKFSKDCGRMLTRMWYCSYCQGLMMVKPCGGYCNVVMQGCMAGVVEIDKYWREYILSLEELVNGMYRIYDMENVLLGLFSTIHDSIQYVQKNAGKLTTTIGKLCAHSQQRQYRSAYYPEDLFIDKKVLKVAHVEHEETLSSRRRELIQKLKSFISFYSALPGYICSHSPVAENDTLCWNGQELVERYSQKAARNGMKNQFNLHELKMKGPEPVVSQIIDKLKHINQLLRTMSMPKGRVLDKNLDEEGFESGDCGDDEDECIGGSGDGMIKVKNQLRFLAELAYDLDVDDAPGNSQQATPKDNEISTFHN

B1: anti-CD40 monoclonal antibody R1090S55A (antibody, V domains shown)
VH: EVQLVQSGAEVKKPGESLKISCKGSGYSFIIYWIGWVRQMPGKGLEWMGIIYPNDADTRYSPSFQGQVTISADKSISTAYLQWSSLKASDTAMYYCVRLGTRDWFDPWGQGTLVTVSS
VL: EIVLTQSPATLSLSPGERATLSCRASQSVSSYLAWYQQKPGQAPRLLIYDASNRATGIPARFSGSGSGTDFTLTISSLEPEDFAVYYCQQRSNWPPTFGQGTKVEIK
B1: no binding (tested: 10 µg/mL) [1]; binds (human CD40 on cells [2]).

B2: anti-GPC3 antibody GpA6062 (antibody, human IgG4 S228P, kappa, V domains shown)
VH: EVQLVETGGGLVQPGGSLRLSCAASGFSFSSYAMNWVRQAPGKGLEWVSYITSGGSSRYYADSVKGRFTISRDNAKNSLYLQMNSLRDEDTAVYYCARGTYYYGSGNYFLFDYWGQGTTVTVSS
VL: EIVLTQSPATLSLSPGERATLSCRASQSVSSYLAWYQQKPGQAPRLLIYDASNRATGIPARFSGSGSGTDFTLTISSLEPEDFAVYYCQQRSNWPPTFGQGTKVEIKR
notes: IgG4PE R409K; light chain with L6 as VL
With B2 the Kd [3] was 6.33 nM, the koff [3] was 0.00175 s⁻¹ and the kon [3] was 276000 M⁻¹ s⁻¹. B2: no binding (tested: 10 µg/mL) (human CD40 on cells [4]).

B3: anti-GPC3 antibody GpA6005 (antibody, human IgG4 S228P, kappa, V domains shown)
VH: QVQLVESGGGLVQPGGSLRLSCAASGFTFSSYSMNWVRQAPGKGLEWVSYIKSSGSSTYYADSVKGRFTISRDNAKNSLNLQMNSLRDEDTAVYYCARGTYYYGSGNFFLFDYWGQGTLVTVSS
VL: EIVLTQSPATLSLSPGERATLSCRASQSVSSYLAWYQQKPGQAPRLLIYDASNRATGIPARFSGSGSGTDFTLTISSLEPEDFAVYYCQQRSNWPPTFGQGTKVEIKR
notes: as for B2
Work on B3 yielded a Kd [3] of 0.762 nM, a koff [3] of 0.000347 s⁻¹ and a kon [3] of 456000 M⁻¹ s⁻¹. B3: no binding (tested: 10 µg/mL) (human CD40 on cells [4]).

B4: anti-GPC3 antibody GpA6014 (antibody, human IgG4 S228P, kappa, V domains shown)
VH: QMQLVQSGGGLVQPGGSLRLSCAASGFSFSSYAMNWVRQAPGKGLEWVSYITSGGSSRYYADSVKGRFTISRDNAKNSLYLQMNSLRDEDTAVYYCARGTYYYGSGNYFLFDHWGQGTMVTVSS
VL: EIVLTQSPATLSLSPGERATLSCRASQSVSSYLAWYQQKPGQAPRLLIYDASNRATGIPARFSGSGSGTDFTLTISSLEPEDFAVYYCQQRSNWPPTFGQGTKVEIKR
notes: as for B2
B4 gave a Kd [3] of 6.35 nM, a koff [3] of 0.00189 s⁻¹ and a kon [3] of 297000 M⁻¹ s⁻¹. B4: no binding (tested: 10 µg/mL) (human CD40 on cells [4]).

B5: anti-CD40 monoclonal antibody 21.4.1 (CP-870,893) (antibody, V domains shown)
VH: not shown
VL: DIQMTQSPSSVSASVGDRVTITCRASQGIYSWLAWYQQKPGKAPNLLIYTASTLQSGVPSRFSGSGSGTDFTLTISSLQPEDFATYYCQQANIFPLTFGGGTKVEIK
notes: Constant region of human IgG2 (N5KG2 vector); positive control agonistic anti-CD40 antibody
B5: no binding (tested: 10 µg/mL) [1].

B6: conventional anti-GPC3 antibody HN3 (IgG4PE R409K) (antibody, V domains shown)
VH: QVQLVQSGGGLVQPGGSLRLSCAASYFDFDSYEMSWVRQAPGKGLEWIGSIYHSGSTYYNPSLKSRVTISRDNSKNTLYLQMNTLRAEDTATYYCARVNMDRFDYWGQGTLVTVSS
notes: Variable region from WO 2012/145469
With B6 the kon [5] was over 1e+07 M⁻¹ s⁻¹, the binding result (human CD40 on cells [6]) was “no binding (tested: 10 µg/mL)” and the Kd [7] was 13.2 nM. For the same binder, the Kd [3] was 24.4 nM and the kon [8] was over 1e+07 M⁻¹ s⁻¹.

B7: conventional anti-GPC3 antibody GC33 (IgG4PE R409K) (antibody, V domains shown)
VH: QVQLQQSGAELVRPGASVKLSCKASGYTFTDYEMHWVKQTPVHGLKWIGALDPKTGDTAYSQKFKGKATLTADKSSSTAYMELRSLTSEDSAVYYCTRFYSYTYWGQGTLVTVSA
VL: DVVMTQTPLSLPVSLGDQASISCRSSQSLVHSNGNTYLHWYLQKPGQSPKLLIYKVSNRFSGVPDRFSGSGSGTDFTLKISRVEAEDLGVYFCSQNTHVPPTFGSGTKLEIK
notes: Variable regions from WO 2006/006693; not shown: constant region of 'a κ chain'
In the case of B7, the binding result (human CD40 on cells [6]) is reported as “no binding (tested: 10 µg/mL)”, the Kd [7] is reported as 2.6 nM and the koff [7] is reported as 0.000378 s⁻¹. It also gave a kon [7] of 145000 M⁻¹ s⁻¹, a Kd [3] of 1.46 nM and a koff [3] of 0.000299 s⁻¹. For the same binder, the kon [3] was 205000 M⁻¹ s⁻¹.

B8: conventional anti-GPC3 antibody YP7 (IgG4PE R409K) (antibody, V domains shown)
VH: EVQLVETGGGMVQPEGSLKLSCAASGFTFNKNAMNWVRQAPGKGLEWVARIRNKTNNYATYYADSVKARFTISRDDSQSMLYLQMNNLKIEDTAMYYCVAGNSFAYWGQGTLVTVSA
VL: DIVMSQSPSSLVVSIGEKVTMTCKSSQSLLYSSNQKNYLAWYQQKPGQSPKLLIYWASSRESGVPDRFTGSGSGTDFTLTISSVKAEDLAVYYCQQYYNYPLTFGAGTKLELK
notes: Variable regions from WO 2013/181543; not shown: constant region of 'a κ chain'
In the case of B8, the binding result (human CD40 on cells [6]) is reported as “no binding (tested: 10 µg/mL)”, the Kd [7] is reported as 0.861 nM and the koff [7] is reported as 0.000186 s⁻¹. It also gave a kon [7] of 217000 M⁻¹ s⁻¹.

B9: R1090S55A monoclonal phage clone (scFv displayed on M13 phage) (scFv, V domains shown)
VH: EVQLVQSGAEVKKPGESLKISCKGSGYSFIIYWIGWVRQMPGKGLEWMGIIYPNDADTRYSPSFQGQVTISADKSISTAYLQWSSLKASDTAMYYCVRLGTRDWFDPWGQGTLVTVSS
VL: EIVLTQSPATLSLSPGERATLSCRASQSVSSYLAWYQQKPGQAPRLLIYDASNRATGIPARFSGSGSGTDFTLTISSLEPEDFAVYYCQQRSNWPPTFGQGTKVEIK
notes: Form in the screening ELISA: scFv on phage (phagemid pCANTAB 5E); also called R1090S55A phage clone
B9: binds (monkey CD40-GST protein); binds (human CD40-GST protein).

B10: anti-GPC3 antibody GPngs18 (antibody, human IgG4 S228P, kappa, V domains shown)
VH: EVQLVESGGGLVQPGGSLRLSCAASGFTFSSYSMNWVRQAPGKGLEWVSYIRSDSRTIKYADSVKGRFTISRDNAKNSLFLQMNSLRDEDTAVYYCARWEWELDAFDIWGQGTMVTVSS
VL: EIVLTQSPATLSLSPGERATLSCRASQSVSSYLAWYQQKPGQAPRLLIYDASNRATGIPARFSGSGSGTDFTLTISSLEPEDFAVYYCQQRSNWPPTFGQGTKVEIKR
notes: as for B2
Work on B10 yielded a Kd [3] of 0.39 nM, a koff [3] of 0.000764 s⁻¹ and a kon [3] of 1.96e+06 M⁻¹ s⁻¹. B10: no binding (tested: 10 µg/mL) (human CD40 on cells [9]).

B11: anti-GPC3 antibody GPngs62 (antibody, human IgG4 S228P, kappa, V domains shown)
VH: EVQLVESGGGLVQPGGSLRLSCAASGFTFSSYARSWVRQAPGKGLEWVSAISGGGGRTYYADSVKGRFTISRDNSQNTLYLQMNSLRAEDTAVYYCAKNYYGSGSASYWYFDLWGRGTLVTVSS
VL: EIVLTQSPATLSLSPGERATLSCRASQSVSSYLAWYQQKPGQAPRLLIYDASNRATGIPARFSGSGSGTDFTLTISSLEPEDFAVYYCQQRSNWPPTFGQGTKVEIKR
notes: as for B2
For B11, the Kd [3] was 5.36 nM, the koff [3] was 0.031 s⁻¹ and the kon [3] was 5.74e+06 M⁻¹ s⁻¹. B11: no binding (tested: 10 µg/mL) (human CD40 on cells [9]).
